Test results as given in patent publication US20220362357A1, “Synergistic Combinations of Amino Acid Depletion Agent Sensitizers (AADAS) and Amino Acid Depletion Agents (AADA), and Therapeutic Methods of Use Thereof” (STICHTING RADBOUD UNIVERSITAIR MEDISCH CENTRUM, priority 2018, published 2022).

Columns and labels:
Test in all cases: PDX ALL cells co-cultured on hTERT MSCs, ASNase x ibrutinib dilution matrix, microscopy
Assay type in all cases: cell-based, human
PDX m1095 = conditions: m1095 (3 d), ibrutinib B0=0 to B9=100
Protocol: (§1) After 2-4 months these mice developed full blown leukemia with an immunophenotype and genetic composition that in the large majority of cases is identical to the original material at the time of injection.
(§2) Briefly, hTERT immortalized MSCs were seeded in either a 384 wells format (microscopy) or a 96 wells format (7AAD staining) and allowed to settle for 24 hours prior to the addition of ALL xenografts. […] After 3 and 7 days of incubation, cell death was analyzed using microscopy using live cells staining or flowcytometry using 7AAD to discriminate between live or dead cells.

PDX m877 = conditions: m877 (3 d), ibrutinib B0=0 to B9=100
Protocol: as §1, §2

PDX m838 = conditions: m838 (3 d), ibrutinib B0=0 to B9=100
Protocol: as §1, §2

PDX m1338 = conditions: m1338 (7 d), ibrutinib B0=0 to B9=100
Protocol: as §1, §2

PDX m4206 = conditions: ibrutinib B0=0 to B9=100
Protocol: as §1, §2

PDX m3657 = conditions: m3657 (7 d), ibrutinib B0=0 to B9=100
Protocol: as §1, §2

B1: ASNase: native E. coli ASNase (NCBI WP_000394140.1), used in the in vitro studies (protein, UniProt P00805 23-348, looked up)
L-asparaginase 2: LPNITILATGGTIAGGGDSATKSNYTVGKVGVENLVNAVPQLKDIANVKGEQVVNIGSQDMNDNVWLTLAKKINTDCDKTDGFVITHGTDTMEETAYFLDLTVKCDKPVVMVGAMRPSTSMSADGPFNLYNAVVTAADKASANRGVLVVMNDTVLDGRDVTKTNTTDVATFKSVNYGPLGYIHNGKIDYQRTPARKHTSDTPFDVSKLNELPKVGIVYNYANASDLPAKALVDAGYDGIVSAGVGNGNLYKSVFDTLATAAKTGTAVVRSSRVPTGATTQDAEVDDAKYGFVASGTLNPQKARVLLQLALTQTKDPQQIQQIFNQY
PDX m1095; ASNase A5=1
  live cells by automated microscopy (table names no quantity): 2579
PDX m1095; ASNase A6=3
  live cells by automated microscopy (table names no quantity): 549
PDX m1095; ASNase A7=10
  live cells by automated microscopy (table names no quantity): 2033
PDX m1095; ASNase A8=32
  live cells by automated microscopy (table names no quantity): 238
PDX m1095; ASNase A9 (A=100)
  live cells by automated microscopy (table names no quantity): 30
PDX m877; ASNase A1=0.01
  live cells by automated microscopy (table names no quantity): 5090
PDX m877; ASNase A2=0.03
  live cells by automated microscopy (table names no quantity): 4877
PDX m877; ASNase A3=0.1
  live cells by automated microscopy (table names no quantity): 4455
PDX m877; ASNase A4=0.3
  live cells by automated microscopy (table names no quantity): 4789
PDX m877; ASNase A5=1
  live cells by automated microscopy (table names no quantity): 5008
PDX m877; ASNase A6=3
  live cells by automated microscopy (table names no quantity): 5125
PDX m877; ASNase A7=10
  live cells by automated microscopy (table names no quantity): 4350
PDX m877; ASNase A8=32
  live cells by automated microscopy (table names no quantity): 1205
PDX m877; ASNase A9 (A=100)
  live cells by automated microscopy (table names no quantity): 2
PDX m838; ASNase A1=0.01
  live cells by automated microscopy (table names no quantity): 2793
PDX m838; ASNase A2=0.03
  live cells by automated microscopy (table names no quantity): 3003
PDX m838; ASNase A3=0.1
  live cells by automated microscopy (table names no quantity): 3109
PDX m838; ASNase A4=0.3
  live cells by automated microscopy (table names no quantity): 2839
PDX m838; ASNase A5=1
  live cells by automated microscopy (table names no quantity): 2454
PDX m838; ASNase A6=3
  live cells by automated microscopy (table names no quantity): 3049
PDX m838; ASNase A7=10
  live cells by automated microscopy (table names no quantity): 2431
PDX m838; ASNase A8=32
  live cells by automated microscopy (table names no quantity): 175
PDX m838; ASNase A9 (A=100)
  live cells by automated microscopy (table names no quantity): 18
PDX m1338; ASNase A1=0.01
  live cells by automated microscopy (table names no quantity): 2207
PDX m1338; ASNase A2=0.03
  live cells by automated microscopy (table names no quantity): 3174
PDX m1338; ASNase A3=0.1
  live cells by automated microscopy (table names no quantity): 2916
PDX m1338; ASNase A4=0.3
  live cells by automated microscopy (table names no quantity): 2372
PDX m1338; ASNase A5=1
  live cells by automated microscopy (table names no quantity): 2788
PDX m1338; ASNase A6=3
  live cells by automated microscopy (table names no quantity): 2166
PDX m1338; ASNase A7=10
  live cells by automated microscopy (table names no quantity): 1468
PDX m1338; ASNase A8=32
  live cells by automated microscopy (table names no quantity): 292
PDX m1338; ASNase A9 (A=100)
  live cells by automated microscopy (table names no quantity): 1
PDX m4206; m4206 (3 d), ASNase A1=0.01
  live cells by automated microscopy (table names no quantity): 3112
PDX m4206; m4206 (3 d), ASNase A2=0.03
  live cells by automated microscopy (table names no quantity): 2484
PDX m4206; m4206 (3 d), ASNase A3=0.1
  live cells by automated microscopy (table names no quantity): 3106
PDX m4206; m4206 (3 d), ASNase A4=0.3
  live cells by automated microscopy (table names no quantity): 2323
PDX m4206; m4206 (3 d), ASNase A5=1
  live cells by automated microscopy (table names no quantity): 2141
PDX m4206; m4206 (3 d), ASNase A6=3
  live cells by automated microscopy (table names no quantity): 2304
PDX m4206; m4206 (3 d), ASNase A7=10
  live cells by automated microscopy (table names no quantity): 1979
PDX m4206; m4206 (3 d), ASNase A8=32
  live cells by automated microscopy (table names no quantity): 301
PDX m4206; m4206 (3 d), ASNase A9 (A=100)
  live cells by automated microscopy (table names no quantity): 69
PDX m4206; m4206 (7 d), ASNase A1=0.01
  live cells by automated microscopy (table names no quantity): 56
PDX m4206; m4206 (7 d), ASNase A2=0.03
  live cells by automated microscopy (table names no quantity): 52
PDX m4206; m4206 (7 d), ASNase A3=0.1
  live cells by automated microscopy (table names no quantity): 86
PDX m4206; m4206 (7 d), ASNase A4=0.3
  live cells by automated microscopy (table names no quantity): 37
PDX m4206; m4206 (7 d), ASNase A5=1
  live cells by automated microscopy (table names no quantity): 83
PDX m4206; m4206 (7 d), ASNase A6=3
  live cells by automated microscopy (table names no quantity): 87
PDX m4206; m4206 (7 d), ASNase A7=10
  live cells by automated microscopy (table names no quantity): 68
PDX m4206; m4206 (7 d), ASNase A8=32
  live cells by automated microscopy (table names no quantity): 24
PDX m4206; m4206 (7 d), ASNase A9 (A=100)
  live cells by automated microscopy (table names no quantity): 35
PDX m3657; ASNase A1=0.01
  live cells by automated microscopy (table names no quantity): 3562
PDX m3657; ASNase A2=0.03
  live cells by automated microscopy (table names no quantity): 4473
PDX m3657; ASNase A3=0.1
  live cells by automated microscopy (table names no quantity): 4173
PDX m3657; ASNase A4=0.3
  live cells by automated microscopy (table names no quantity): 1159
PDX m3657; ASNase A5=1
  live cells by automated microscopy (table names no quantity): 3935
PDX m3657; ASNase A6=3
  live cells by automated microscopy (table names no quantity): 3317
PDX m3657; ASNase A7=10
  live cells by automated microscopy (table names no quantity): 4220
PDX m3657; ASNase A8=32
  live cells by automated microscopy (table names no quantity): 723
PDX m3657; ASNase A9 (A=100)
  live cells by automated microscopy (table names no quantity): 17
